Measured values as given in US20170281764A1 (JN BIOSCIENCES, published 2017).
Positions count from the first letter of the chain named. In names and notes the source's numbering stands.

What was measured:
[1] = biological target: T1, HA-tagged human TIGIT with mutation H90A, on CHO-K1 cells (human, UniProt Q495A1 22-244); assay: flow cytometry on CHO-K1 cells transiently expressing HA-tagged TIGIT mutant
T1 construct: Built as for m17
T1 sequence: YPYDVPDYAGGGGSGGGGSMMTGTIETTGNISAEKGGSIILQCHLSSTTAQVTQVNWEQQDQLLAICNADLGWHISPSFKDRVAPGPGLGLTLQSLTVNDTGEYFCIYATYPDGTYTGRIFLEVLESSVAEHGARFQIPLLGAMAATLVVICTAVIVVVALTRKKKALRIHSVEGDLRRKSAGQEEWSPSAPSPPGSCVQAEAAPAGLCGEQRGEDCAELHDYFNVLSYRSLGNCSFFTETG
Procedure: (§1) For flow cytometry analysis of the anti-hTIGIT antibody binding epitope, HA-tagged human TIGIT proteins with or without single amino acid mutation were transiently transfected into CHO-K1 cells. After 24 hr, transfected cells were suspended in HBSS buffer (Thermo Fisher Scientific, Cat#14175095), and incubated with HuTIG1-IgG1.AA antibody at varying concentrations in 50 μL volume. After 1 hr incubation at 4° C., cells were washed and a second incubation with 50 μL Alexa488 conjugated anti-human IgG(H+L) secondary antibody (Thermo Fisher Scientific, Cat#A-11013) was performed to detect cells bound by antibody. Cells were incubated with an anti-HA antibody (Sigma, Cat# H7411) as a positive control, and non-transfected CHO-K1 cells were used as a negative control. The cells were analyzed on an Attune NxT Cytometer (Thermo Fisher Scientific) and the data were processed using FlowJo software. For each mutant, the saturating antibody binding MFI (mean fluorescence intensity) were normalized to 100% POC (percent of control), and no primary antibody binding control MFI were normalized to 0% POC. Data were then fit to a four parameter non-linear sigmoidal curve using GraphPad Prism 7 curve fitting using following formula: Y=Bottom+(Top−Bottom)/(1+10^{((Log EC}^₅₀^{-X)*HillSlope)}).
All of these residues co-locate to one discrete region on the front ([…] structure of the TIGIT IgV extracellular domain (FIG. 28).

[2] = biological target: T2, HA-tagged human TIGIT, wild type, transiently expressed on CHO-K1 cells (human, UniProt Q495A1 22-244); assay: flow cytometry on CHO-K1 cells transiently expressing HA-tagged human TIGIT; wild type TIGIT
T2 sequence: T1 sequence with A109H
Procedure: as §1, with “EC}^₅₀^{-X)*HillSlope)}). […]” for “EC}^₅₀^{-X)*HillSlope)}).”

B1: HuTIG1-IgG1.AA (humanized IgG1/kappa form of TIG1, L234A/L235A) (antibody)
heavy: not shown
light: DIQMTQSPSSLSASVGDRVTITCRASKSISKYLAWYQQKPGKAPKLLIYSGSTLQSGVPSRFSGSGSGTDFTLTISSLQPEDFATYYCQQHNEYPWTFGGGTKVEIKRTVAAPSVFIFPPSDEQLKSGTASVVCLLNNFYPREAKVQWKVDNALQSGNSQESVTEQDSKDSTYSLSSTLTLSKADYEKHKVYACEVTHQGLSSPVTKSFNRGEC
notes: Mature full chains; also called humanized TIG1
[1]
  fold decrease in binding affinity against wild type human TIGIT: > 10 fold
[2]
  EC50: 1.28 nM
